The test deals with T1, papain (UniProt P00784 134-345).
T1 sequence (looked up): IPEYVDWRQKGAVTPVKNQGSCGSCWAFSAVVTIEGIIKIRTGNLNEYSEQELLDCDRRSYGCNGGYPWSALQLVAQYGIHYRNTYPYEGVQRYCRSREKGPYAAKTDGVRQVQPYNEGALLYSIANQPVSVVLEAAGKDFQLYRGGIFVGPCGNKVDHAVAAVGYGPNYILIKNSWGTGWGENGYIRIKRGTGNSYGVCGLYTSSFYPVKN
The test can be described thus: reversible inhibition of papain activity, Ki corrected for substrate competition (Km=60 µM).

B1: human Cystatin F (recombinant, produced in a baculovirus system) (other)
chain: GPSPDTCSQDLNSRVKPGFPKTIKTNDPGVLQAARYSVEKFNNCTNDMFLFKESRITRALVQIVKGLKYMLEVEIGRTTCKKNQHLRLDDCDFQTNHTLKQTLSCYSEVWVVPWLQHFEVPVLRCH
notes: 20-145 is used here; also called recombinant Cystatin F
In turn, B1 returned an inhibition constant Ki of 1.05 nM.
